The source of these data is publication PMC8953949, “Identifying Function Determining Residues in Neuroimmune Semaphorin 4A” (International Journal of Molecular Sciences, 2022).

One assay deals with NRP1 (UniProt O14786). Description: ELISA; LRA ELISA of Sema4A and NRP1 (Supplemental Figure S2).
Assay [1] has as its target recombinant human Plexin B1 with a 6X His tag at C-terminus (human) (UniProt O43157). Briefly: ELISA; direct ligand-receptor (LRA) ELISA; Plexin B1 (8-10 ug/mL) immobilised on Immulon 2 plates overnight, Sema4 in solution in varying doses from 2 ug/mL; detection by HRP-labelled Abs to tags; fit 'One site-specific binding with Hill slope'.
The target of another assay is Plexin D1 (UniProt Q9Y4D7). Briefly: SPR. The settings on record: cited from earlier work.
Chain of Plexin D1 (Q9Y4D7 47-1271): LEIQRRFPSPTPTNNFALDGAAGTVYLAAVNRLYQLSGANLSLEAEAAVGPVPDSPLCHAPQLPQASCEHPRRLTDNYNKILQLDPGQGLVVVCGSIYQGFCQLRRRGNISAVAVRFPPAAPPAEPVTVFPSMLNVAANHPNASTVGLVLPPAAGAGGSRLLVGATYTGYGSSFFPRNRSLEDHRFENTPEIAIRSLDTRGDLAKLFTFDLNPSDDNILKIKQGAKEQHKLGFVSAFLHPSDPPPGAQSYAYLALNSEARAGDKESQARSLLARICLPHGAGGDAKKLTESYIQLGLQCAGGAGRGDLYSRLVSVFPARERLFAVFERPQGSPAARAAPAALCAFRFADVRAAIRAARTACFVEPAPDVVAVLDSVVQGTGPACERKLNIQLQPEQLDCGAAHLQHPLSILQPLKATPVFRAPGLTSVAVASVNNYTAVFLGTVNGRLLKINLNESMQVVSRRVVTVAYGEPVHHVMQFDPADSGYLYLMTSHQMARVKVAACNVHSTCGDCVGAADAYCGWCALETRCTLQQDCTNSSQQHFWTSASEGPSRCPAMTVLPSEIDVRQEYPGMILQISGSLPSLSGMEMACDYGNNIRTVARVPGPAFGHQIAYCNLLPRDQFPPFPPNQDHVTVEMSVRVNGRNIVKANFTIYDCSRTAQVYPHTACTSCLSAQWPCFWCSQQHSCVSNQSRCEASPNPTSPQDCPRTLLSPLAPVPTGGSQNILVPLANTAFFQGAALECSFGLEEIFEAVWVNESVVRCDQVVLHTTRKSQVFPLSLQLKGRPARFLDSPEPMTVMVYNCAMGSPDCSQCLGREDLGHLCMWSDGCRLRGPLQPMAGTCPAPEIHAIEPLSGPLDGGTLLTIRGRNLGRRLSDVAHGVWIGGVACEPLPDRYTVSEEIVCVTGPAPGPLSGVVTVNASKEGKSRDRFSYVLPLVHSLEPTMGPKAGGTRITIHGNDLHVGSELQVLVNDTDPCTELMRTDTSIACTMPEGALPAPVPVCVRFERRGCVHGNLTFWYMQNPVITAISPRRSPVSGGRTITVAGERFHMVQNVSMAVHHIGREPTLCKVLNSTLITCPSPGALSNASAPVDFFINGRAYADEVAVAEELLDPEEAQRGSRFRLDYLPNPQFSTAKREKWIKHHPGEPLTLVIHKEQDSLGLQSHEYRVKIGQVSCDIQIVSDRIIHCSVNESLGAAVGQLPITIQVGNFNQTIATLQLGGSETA
Assay [2] concerns the target Plexin B1 (Homo sapiens) (UniProt O43157). Briefly: cell-based ELISA. The settings on record: cited from earlier work. For orientation: In an ELISA, binding on a coated surface is turned into a signal by an enzyme label.
Assay [3] shares this target. Description: SPR. The conditions noted are these: cited from earlier work.
Assay [4] has as its target T1, recombinant human Plexin B1 with a 6X His tag at C-terminus (human, UniProt O43157 20-1490).
T1 construct: Plexin B1, human; Only the molecular weight (66 kDa) is printed; it must be a fragment of the extracellular part, limits unknown; also called rhPlexin B1; rhPlexin B1-His; source: bought: GenScript; not shown: His6, C-terminal, kept
T1 sequence (looked up): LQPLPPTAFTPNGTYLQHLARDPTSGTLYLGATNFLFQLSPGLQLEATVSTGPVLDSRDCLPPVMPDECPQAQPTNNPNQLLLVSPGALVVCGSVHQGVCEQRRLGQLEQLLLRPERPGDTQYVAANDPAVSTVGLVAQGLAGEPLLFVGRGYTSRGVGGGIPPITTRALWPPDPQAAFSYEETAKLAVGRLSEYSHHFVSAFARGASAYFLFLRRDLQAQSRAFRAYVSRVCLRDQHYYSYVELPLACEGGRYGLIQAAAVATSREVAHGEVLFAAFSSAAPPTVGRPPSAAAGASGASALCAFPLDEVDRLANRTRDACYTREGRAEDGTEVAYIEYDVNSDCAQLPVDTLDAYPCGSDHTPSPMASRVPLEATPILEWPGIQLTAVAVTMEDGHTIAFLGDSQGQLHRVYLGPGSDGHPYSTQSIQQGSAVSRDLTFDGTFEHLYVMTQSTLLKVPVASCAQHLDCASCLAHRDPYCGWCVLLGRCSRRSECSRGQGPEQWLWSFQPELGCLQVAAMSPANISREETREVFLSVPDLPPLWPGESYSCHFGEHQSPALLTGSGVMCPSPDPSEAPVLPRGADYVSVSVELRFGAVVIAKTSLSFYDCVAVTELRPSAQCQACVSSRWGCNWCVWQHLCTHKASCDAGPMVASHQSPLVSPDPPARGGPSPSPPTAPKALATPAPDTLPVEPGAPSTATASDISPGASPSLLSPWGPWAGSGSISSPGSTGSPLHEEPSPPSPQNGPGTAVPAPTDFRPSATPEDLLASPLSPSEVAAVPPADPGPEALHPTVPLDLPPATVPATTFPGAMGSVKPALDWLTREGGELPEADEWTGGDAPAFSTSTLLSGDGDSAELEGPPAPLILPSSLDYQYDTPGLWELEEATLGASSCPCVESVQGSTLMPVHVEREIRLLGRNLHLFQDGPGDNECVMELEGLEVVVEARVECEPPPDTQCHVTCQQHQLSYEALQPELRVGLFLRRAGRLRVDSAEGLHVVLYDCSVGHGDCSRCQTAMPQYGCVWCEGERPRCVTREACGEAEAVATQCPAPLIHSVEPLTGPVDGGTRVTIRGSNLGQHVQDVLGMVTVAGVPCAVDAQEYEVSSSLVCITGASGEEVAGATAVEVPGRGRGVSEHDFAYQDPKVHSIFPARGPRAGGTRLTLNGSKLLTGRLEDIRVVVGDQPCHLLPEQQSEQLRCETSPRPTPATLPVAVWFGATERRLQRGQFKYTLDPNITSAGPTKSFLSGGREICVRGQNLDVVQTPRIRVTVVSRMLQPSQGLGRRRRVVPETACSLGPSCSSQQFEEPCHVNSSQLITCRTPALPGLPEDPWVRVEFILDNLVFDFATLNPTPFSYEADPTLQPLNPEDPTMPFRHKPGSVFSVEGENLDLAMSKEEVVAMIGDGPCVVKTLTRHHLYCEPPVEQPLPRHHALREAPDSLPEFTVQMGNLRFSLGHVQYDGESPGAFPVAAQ
Briefly: ELISA; direct LRA ELISA; Plexin B1-His (10 ug/mL) captured on HIS-Select nickel-coated microplates in Tris buffer overnight, Sema4 in solution in varying doses from 2 ug/mL. The conditions noted are these: both partners purified.

Assay [5] concerns the target T1, recombinant human Plexin B1 with a 6X …. Description: ELISA; reverse LRA ELISA; Sema4 (2 ug/mL) coated on Immulon 2 plates overnight at 4 C in 0.1 M sodium carbonate-bicarbonate buffer, rhPlexin B1 in solution in varying doses from 10 ug/mL. The conditions noted are these: both partners purified.
Assay [6] concerns the target soluble recombinant human Sema4A (GST- or Fc-tagged, as used in Figures 2 and 3) (human) (UniProt Q9H3S1). The description is as above.

Chain of NRP1 (O14786 22-856): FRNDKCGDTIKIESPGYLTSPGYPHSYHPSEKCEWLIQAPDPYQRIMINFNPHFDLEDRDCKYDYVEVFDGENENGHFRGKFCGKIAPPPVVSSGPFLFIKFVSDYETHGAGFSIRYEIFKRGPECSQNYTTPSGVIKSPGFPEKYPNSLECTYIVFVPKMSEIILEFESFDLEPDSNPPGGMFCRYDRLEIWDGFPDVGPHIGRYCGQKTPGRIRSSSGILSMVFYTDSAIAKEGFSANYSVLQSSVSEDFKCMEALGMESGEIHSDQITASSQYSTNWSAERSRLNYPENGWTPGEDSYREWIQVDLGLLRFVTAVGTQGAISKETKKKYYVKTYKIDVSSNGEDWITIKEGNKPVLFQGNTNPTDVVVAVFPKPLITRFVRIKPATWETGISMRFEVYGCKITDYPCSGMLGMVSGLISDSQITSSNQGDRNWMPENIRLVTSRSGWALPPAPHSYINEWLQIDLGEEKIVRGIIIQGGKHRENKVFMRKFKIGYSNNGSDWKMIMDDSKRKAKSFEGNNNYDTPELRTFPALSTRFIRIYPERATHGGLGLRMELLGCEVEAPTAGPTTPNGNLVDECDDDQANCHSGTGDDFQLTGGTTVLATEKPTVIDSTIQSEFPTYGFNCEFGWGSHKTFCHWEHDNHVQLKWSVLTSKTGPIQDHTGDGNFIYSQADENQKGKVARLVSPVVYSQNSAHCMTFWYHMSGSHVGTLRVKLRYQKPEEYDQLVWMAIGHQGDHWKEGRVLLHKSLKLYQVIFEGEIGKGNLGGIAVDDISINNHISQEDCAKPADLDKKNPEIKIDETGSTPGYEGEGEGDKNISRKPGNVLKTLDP

Usually Kd stands for the concentration at which binding is half-saturated. As for “soluble recombinant human Sema4A (GST- or Fc-tagged, as used in Figures 2 and 3) (from UniProt Q9H3S1 33-683) (ligand)”, the equilibrium dissociation constant (Kd) in the assay with NRP1 turned out to be 0.0283 µM; in assay [1], 0.0199 µM. Consider Sema4A (from UniProt Q9H3S1), for which the dissociation constant Kd with Plexin D1 was 0.00872 µM. As for Sema4D (from UniProt Q92854), in the assay with Plexin B1 (Homo sapiens) [2], the equilibrium dissociation constant (Kd) is 0.0009 µM. Take “Sema4D Sema domain (from UniProt Q92854)”: the Kd with Plexin B1 (Homo sapiens) [3] was 5500 µM.

B1: WT rhSema4A-Fc (GenScript) (Fc fusion, human, UniProt Q9H3S1 33-683, looked up)
chain: GGGQGPMPRVRYYAGDERRALSFFHQKGLQDFDTLLLSGDGNTLYVGAREAILALDIQDPGVPRLKNMIPWPASDRKKSECAFKKKSNETQCFNFIRVLVSYNVTHLYTCGTFAFSPACTFIELQDSYLLPISEDKVMEGKGQSPFDPAHKHTAVLVDGMLYSGTMNNFLGSEPILMRTLGSQPVLKTDNFLRWLHHDASFVAAIPSTQVVYFFFEETASEFDFFERLHTSRVARVCKNDVGGEKLLQKKWTTFLKAQLLCTQPGQLPFNVIRHAVLLPADSPTAPHIYAVFTSQWQVGGTRSSAVCAFSLLDIERVFKGKYKELNKETSRWTTYRGPETNPRPGSCSVGPSSDKALTFMKDHFLMDEQVVGTPLLVKSGVEYTRLAVETAQGLDGHSHLVMYLGTTTGSLHKAVVSGDSSAHLVEEIQLFPDPEPVRNLQLAPTQGAVFVGFSGGVWRVPRANCSVYESCVDCVLARDPHCAWDPESRTCCLLSAPNLNSWKQDMERGNPEWACASGPMSRSLRPQSRPQIIKEVLAVPNSILELPCPHLSALASYYWSHGPAAVPEASSTVYNGSLLLIVQDGVGGLYQCWATENGFSYPVISYWVDSQDQTLALDPELAGIPREHVKVPLTRVSGGAALAAQQSYWPH
notes: Semaphorin 4A, human; also called WT Sema4A; WT Sema4A-Fc; source: bought: GenScript
For the molecule B1, the figures for the Kd in assay [4] and in assay [5] were 0.00255 µM and 0.0025 µM, respectively.

B2: M198A rhSema4A-Fc (Fc fusion, human, UniProt Q9H3S1 33-683, looked up)
chain: GGGQGPMPRVRYYAGDERRALSFFHQKGLQDFDTLLLSGDGNTLYVGAREAILALDIQDPGVPRLKNMIPWPASDRKKSECAFKKKSNETQCFNFIRVLVSYNVTHLYTCGTFAFSPACTFIELQDSYLLPISEDKVMEGKGQSPFDPAHKHTAVLVDGMLYSGTANNFLGSEPILMRTLGSQPVLKTDNFLRWLHHDASFVAAIPSTQVVYFFFEETASEFDFFERLHTSRVARVCKNDVGGEKLLQKKWTTFLKAQLLCTQPGQLPFNVIRHAVLLPADSPTAPHIYAVFTSQWQVGGTRSSAVCAFSLLDIERVFKGKYKELNKETSRWTTYRGPETNPRPGSCSVGPSSDKALTFMKDHFLMDEQVVGTPLLVKSGVEYTRLAVETAQGLDGHSHLVMYLGTTTGSLHKAVVSGDSSAHLVEEIQLFPDPEPVRNLQLAPTQGAVFVGFSGGVWRVPRANCSVYESCVDCVLARDPHCAWDPESRTCCLLSAPNLNSWKQDMERGNPEWACASGPMSRSLRPQSRPQIIKEVLAVPNSILELPCPHLSALASYYWSHGPAAVPEASSTVYNGSLLLIVQDGVGGLYQCWATENGFSYPVISYWVDSQDQTLALDPELAGIPREHVKVPLTRVSGGAALAAQQSYWPH
notes: Semaphorin 4A, human; as the WT Sema4A-Fc of GenScript with M198A; Similar molecular size as the WT Sema4A-Fc protein prepared similarly; also called Sema4A-M198A; Mu M198A Sema4A; source: prepared by GenScript
For the molecule B2, the equilibrium dissociation constant (Kd) in assay [4] was determined as 0.00419 µM; in assay [5], 0.0017 µM.

B3: F223A rhSema4A-Fc (Fc fusion, human, UniProt Q9H3S1 33-683, looked up)
chain: GGGQGPMPRVRYYAGDERRALSFFHQKGLQDFDTLLLSGDGNTLYVGAREAILALDIQDPGVPRLKNMIPWPASDRKKSECAFKKKSNETQCFNFIRVLVSYNVTHLYTCGTFAFSPACTFIELQDSYLLPISEDKVMEGKGQSPFDPAHKHTAVLVDGMLYSGTMNNFLGSEPILMRTLGSQPVLKTDNALRWLHHDASFVAAIPSTQVVYFFFEETASEFDFFERLHTSRVARVCKNDVGGEKLLQKKWTTFLKAQLLCTQPGQLPFNVIRHAVLLPADSPTAPHIYAVFTSQWQVGGTRSSAVCAFSLLDIERVFKGKYKELNKETSRWTTYRGPETNPRPGSCSVGPSSDKALTFMKDHFLMDEQVVGTPLLVKSGVEYTRLAVETAQGLDGHSHLVMYLGTTTGSLHKAVVSGDSSAHLVEEIQLFPDPEPVRNLQLAPTQGAVFVGFSGGVWRVPRANCSVYESCVDCVLARDPHCAWDPESRTCCLLSAPNLNSWKQDMERGNPEWACASGPMSRSLRPQSRPQIIKEVLAVPNSILELPCPHLSALASYYWSHGPAAVPEASSTVYNGSLLLIVQDGVGGLYQCWATENGFSYPVISYWVDSQDQTLALDPELAGIPREHVKVPLTRVSGGAALAAQQSYWPH
notes: Semaphorin 4A, human; as the WT Sema4A-Fc of GenScript with F223A; Similar molecular size as the WT Sema4A-Fc protein prepared similarly; also called Sema4A-F223A; Mu F223A Sema4A; source: prepared by GenScript
With B3, the Kd in assay [4] stood at 0.00282 µM; in assay [5], 0.0035 µM.

B4: recombinant human Plexin B1 with a 6X His tag at C-terminus (receptor)
chain: LQPLPPTAFTPNGTYLQHLARDPTSGTLYLGATNFLFQLSPGLQLEATVSTGPVLDSRDCLPPVMPDECPQAQPTNNPNQLLLVSPGALVVCGSVHQGVCEQRRLGQLEQLLLRPERPGDTQYVAANDPAVSTVGLVAQGLAGEPLLFVGRGYTSRGVGGGIPPITTRALWPPDPQAAFSYEETAKLAVGRLSEYSHHFVSAFARGASAYFLFLRRDLQAQSRAFRAYVSRVCLRDQHYYSYVELPLACEGGRYGLIQAAAVATSREVAHGEVLFAAFSSAAPPTVGRPPSAAAGASGASALCAFPLDEVDRLANRTRDACYTREGRAEDGTEVAYIEYDVNSDCAQLPVDTLDAYPCGSDHTPSPMASRVPLEATPILEWPGIQLTAVAVTMEDGHTIAFLGDSQGQLHRVYLGPGSDGHPYSTQSIQQGSAVSRDLTFDGTFEHLYVMTQSTLLKVPVASCAQHLDCASCLAHRDPYCGWCVLLGRCSRRSECSRGQGPEQWLWSFQPELGCLQVAAMSPANISREETREVFLSVPDLPPLWPGESYSCHFGEHQSPALLTGSGVMCPSPDPSEAPVLPRGADYVSVSVELRFGAVVIAKTSLSFYDCVAVTELRPSAQCQACVSSRWGCNWCVWQHLCTHKASCDAGPMVASHQSPLVSPDPPARGGPSPSPPTAPKALATPAPDTLPVEPGAPSTATASDISPGASPSLLSPWGPWAGSGSISSPGSTGSPLHEEPSPPSPQNGPGTAVPAPTDFRPSATPEDLLASPLSPSEVAAVPPADPGPEALHPTVPLDLPPATVPATTFPGAMGSVKPALDWLTREGGELPEADEWTGGDAPAFSTSTLLSGDGDSAELEGPPAPLILPSSLDYQYDTPGLWELEEATLGASSCPCVESVQGSTLMPVHVEREIRLLGRNLHLFQDGPGDNECVMELEGLEVVVEARVECEPPPDTQCHVTCQQHQLSYEALQPELRVGLFLRRAGRLRVDSAEGLHVVLYDCSVGHGDCSRCQTAMPQYGCVWCEGERPRCVTREACGEAEAVATQCPAPLIHSVEPLTGPVDGGTRVTIRGSNLGQHVQDVLGMVTVAGVPCAVDAQEYEVSSSLVCITGASGEEVAGATAVEVPGRGRGVSEHDFAYQDPKVHSIFPARGPRAGGTRLTLNGSKLLTGRLEDIRVVVGDQPCHLLPEQQSEQLRCETSPRPTPATLPVAVWFGATERRLQRGQFKYTLDPNITSAGPTKSFLSGGREICVRGQNLDVVQTPRIRVTVVSRMLQPSQGLGRRRRVVPETACSLGPSCSSQQFEEPCHVNSSQLITCRTPALPGLPEDPWVRVEFILDNLVFDFATLNPTPFSYEADPTLQPLNPEDPTMPFRHKPGSVFSVEGENLDLAMSKEEVVAMIGDGPCVVKTLTRHHLYCEPPVEQPLPRHHALREAPDSLPEFTVQMGNLRFSLGHVQYDGESPGAFPVAAQ
Regarding B4, in assay [6], the dissociation constant (Kd) came out at 0.0354 µM.
